In publication PMC5578738 (eLife, 2017):

Target: T1, Side-VI (CG34114) complete ectodomain, biotinylated (SPR) (Drosophila melanogaster, UniProt Q0KI85 1-1087, biotin on the biotin acceptor peptide (E. coli BirA))
T1 construct: Side-VI (CG34114), Drosophila, complete ectodomain; source: Trichoplusia ni High Five cells, baculovirus, secreted, purified (Ni-NTA, SEC)
T1 sequence (looked up): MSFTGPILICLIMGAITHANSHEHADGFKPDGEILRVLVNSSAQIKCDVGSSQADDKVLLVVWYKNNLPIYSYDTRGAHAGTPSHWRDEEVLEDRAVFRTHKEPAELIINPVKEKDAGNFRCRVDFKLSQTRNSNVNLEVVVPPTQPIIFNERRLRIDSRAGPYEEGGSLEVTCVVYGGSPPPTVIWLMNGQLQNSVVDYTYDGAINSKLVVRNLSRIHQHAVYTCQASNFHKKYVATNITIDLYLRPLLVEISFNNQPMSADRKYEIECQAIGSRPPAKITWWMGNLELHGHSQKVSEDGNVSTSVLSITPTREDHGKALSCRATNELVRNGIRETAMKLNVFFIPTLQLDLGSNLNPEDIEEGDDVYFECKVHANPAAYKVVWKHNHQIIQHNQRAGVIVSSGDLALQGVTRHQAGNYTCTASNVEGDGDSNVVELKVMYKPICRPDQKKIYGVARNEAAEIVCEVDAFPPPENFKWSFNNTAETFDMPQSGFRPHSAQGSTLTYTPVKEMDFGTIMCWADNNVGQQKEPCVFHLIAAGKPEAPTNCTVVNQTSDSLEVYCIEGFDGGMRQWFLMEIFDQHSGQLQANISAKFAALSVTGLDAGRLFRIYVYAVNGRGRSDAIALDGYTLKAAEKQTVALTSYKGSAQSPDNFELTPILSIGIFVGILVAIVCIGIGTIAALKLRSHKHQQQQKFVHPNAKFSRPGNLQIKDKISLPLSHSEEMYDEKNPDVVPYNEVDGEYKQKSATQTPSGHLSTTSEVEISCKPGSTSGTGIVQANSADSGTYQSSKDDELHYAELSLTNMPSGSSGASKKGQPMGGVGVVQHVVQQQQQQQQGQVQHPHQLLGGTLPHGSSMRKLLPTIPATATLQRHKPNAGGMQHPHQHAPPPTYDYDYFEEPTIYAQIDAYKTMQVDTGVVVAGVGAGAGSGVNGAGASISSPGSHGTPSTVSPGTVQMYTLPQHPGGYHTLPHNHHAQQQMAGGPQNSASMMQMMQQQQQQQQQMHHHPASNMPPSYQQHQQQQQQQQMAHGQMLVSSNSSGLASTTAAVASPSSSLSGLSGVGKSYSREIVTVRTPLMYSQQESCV
Test: SPR; Biacore T100; biotinylated Side-VI captured on an SA chip, Beat-Va or Beat-Vb flowed over; HBSp+ with 500 mM NaCl and 15% glycerol; equilibrium responses fitted to a Langmuir isotherm
Details: both partners purified

B1: Beat-Va complete ectodomain (SPR) (domain or fragment)
chain: LFVTDISVPEIVDFRDNVTLSCSYDMRGHTLNSVKWYKDHEEFFRYSPLTSPIYMTFDVAGLQVLEGKYVCNESSCRLDLSLQGAKSTGLYKCEVSGDAPHFKLADKADNMTVAALPQNDPLIESFNSMYRMEEYLKATCISDFSSLPTRLTWYINGEQPLLGELYPTTDTSLAAHDYVLRRQRLQVQFFLQGQRFFQAGKILELKCVAEIENYPELRREKTLSASLSQYDNFNNQMPLRHANANSGSAQRSILCGRTSLISAFLAAILLIHCLRRPS
- Kd: 760 nM
- koff: ≥ 0.5 s⁻¹
